Drawing on a protein production outcome set (Wang et al. 2014), this text covers protein production for 28 sequences.

This series is described as follows: label from the status in PepcDB records.

Consider “SCGDKMNKNTGALEFDSIQVNETAHLFGDTAKPACNLTINFAYPVKSTDNKLKDSLNSYFIAACFGEGYIGEKPAQVVKEYTEHYVKEYRTDLEPMYAEDEKNKESEGSIGAWYSYYKGIESHVQLYYKNLLVYRINYNEYTGGAHGIYMTTFLNMDLINLRPLKLDDIFTGDYKEALTDLLWNQLMADKKVTTHEALEDMGYGSTGDIAPTENFYLDKDGITFYYNVYDITPYAMGPVEIKIPYEMMEHMLGSNPIIGEMKSK”, for which the protein production result is given as “not failed”.
With “SDPLYVPDPDPTKFPVNRNLTRKAGYLNARNKTGLVSSTWDRQFYFTQGGNLMSQARGDVAGGLAMDIDNCSVMAVDCEDRRYCFQITSFDGKKSSILQAESKKDHEEWICTINNISKQIYLSENPEETAARVNQSALEAVTPSPSFQQRHESLRPAAGQSRPPTART” the entry was “failed”; with “SEEEEYEQIPQENPPEELSQDPVLELSGGLREKEQKTPRRLRLILMGKTGSGKSATGNSILGRDVFESKLSTRPVTKTSQRRSREWAGKELEVIDTPNILSPQVSPEVADAICQAIVLSAPGPHAVLLVTQLGRFTDEDQQVVRRLQEVFGVGVLGHTILVFTRKEDLAGGSLEDYVRETNNQALAWLDVTLARRHCGFNNRAQGEEQEAQLRELMEKVEAIMWENEGDYYSNKAYQYTQQNFRLKELQERQVSQGQGSEDVPGEESWLEGLSQIQKESEEAHRCLLGKADL”, “not failed”.
On to “SELSQLLNEIRANYEKILTRNQIETVLSTRIQLEEDISKKMDKDEEALKAAQAELKEARRQWHHLQVEIESLHAVERGLENSLHASEQHYQMQLQDLETVIEGLEKELQEVRRGIEKQLQEHEMLLNTKMRLEQEIATYRHLLEKEEIRYYGCIQGGKKDKKPTTSRVGFVLPSAIINEISFTTKVPQKYENENVETVTKQAILNGSIVKESTEAHGTIQTEKVDEVIKEWEGSFFKDNPRLRKKSVSLRFDLHLAATDEGCLETKQDNLPDIEVRLIMRRSCSIPSIKPPSTAN”, for which the protein production entry is listed as “not failed”.
With “SESQSEEIDCNDKDLFKAVDAALKKYNSQNQSNNQFVLYRITEATKTVGSDTFYSFKYEIKEGDCPVQSGKTWQDCEYKDAAKAATGECTATVGKRSSTKFSVATQTCQITPAEGPVVTAQYDCLGCVHPISTQSPDLEPILRHG”, the protein production result is given as “not failed”.
With “SFGVKDAIFKIKRSIAGTDSSDSTAYTTASESSPQLKDSHNPFRNKTTSERTIVEEGSLPPVRLNGYLPSTKNKLLTPEMCDEIRTLMPTRIQLYTEWNLLYSLEQHGSSLHSLYSNVAPDSKEFRRVGYVLVIKDRKNGIFGAYSNEAFHPNEHRQYTGNGECFLWKLDKVPDVNISEKEESEQEGKEGKEEGDKEERWRFSGYPYTGVNEFAIYCTSEFLSMGAGDGHYGLLCDDGLLHGVSNPCQTYGNEVLSKEGKKFSIVALEVWRVG” the entry was “not failed”.
Take “SFPNRRIVTTVFNDEGIQFLVTRYIKALNPPQQLLDIFLHNSNATFDLIARFVSLIPFVPNTPDENDGSDIWMTSEHCISLAIGNKEEHAILLCNFFLYFGKKALVLLGTSVLEGHVAYVVTQETNEYLLWNPSTGQCYKQFDPFCPLKSVDCLFDDRNVWFNIQQNNTPMAVFFDYSKESFWKQLLPKNVQGTKIQSIQVTGFPIQMPYIDVQSIIDAVYQTGIHSAEFPQTEFALAVYIHPYPNNILSVWVYLASLVQHQ”: the protein production result is “not failed”.
As for “SGESIPLAAPVPVEQAVLETFFSHLGIFSYDKAKDNVEKEREANKSAGGSWLSLLAALAHLAAAEKVYHSLTYLGQKLGGQSFFSRKDSIRTIYTSLHNELKKVVAGRGAPGGTAPHVEELLPHLSEQLCFFVQARMEIADFYEKMYALSTQKFINTEELVSTLDTILRKYSSRFHHPILSPLESSFQLEVGVLSHLLKAQAQISEWKFLPSLVTLHNAHTKLQSWGQTFEKQRETKKHLFGGQSQKAVQPPHLFLWLMKLKTMLLAKFSFYFHEALSRQTTASEMKALTAKANPDLFGKISSFIRKYDAANVSLIFDNRGSESFQGHGYHHPHSYREAPKGVDQYPAVVSLPSDRPVMHWPNVIMIMTDRASDLNSLEKVVHFYDDKVQSTYFLTRPEPHFTIVVIFESKKSERDSHFISFLNELSLALKNPKVFASLKPGSKG”, the protein production entry is given as “not failed”.
With “SGMLERLPLCGKAFADMMGKVDVWKWCNLSEFIVYYESFTNCTEMEANVVGCYWPNPLAQGFITGIHRQFFSNCTVDRVHLEDPPDEVLIPLIVIPVVLTVAMAGLVVWRSKRTDTLL” the entry was “failed”.
For the sequence “SGQAYIGTYPNGDKIFVKINTTPILAALAKEQIAPQLLWAKRLGNGDMMSAQEWLDGRLLTRADMNSKQIIQVLLQMHKSKPLVNQLLQLNYKVETPLDLLLSWERSAPYQISENAYLQSVVAEMKRNLPDFKKDYATIVHGDVRHSNWVITTSGLVYLVDWDSVRVTDRMYDVAHILSHYIPHTRWAEWLSYYGYKQNTKVFQKIKWYGQLSYLSQILKYYENR”, the protein production entry was “failed”.
As for “SHLVVESFPSYRDVTLFEGKRVSFYKRAQILVADTWSVLEGKGDGCFKDISSITMFADYRLPQVLAHLGALKYSDDLLKKLLKGEMLSYGDRQEVEIRGCSLWCVELIRDCLLELIEQKGEKPNGEINSILLDYYLWDYAHDHREDMKGIPFHRIRCIYY”, the protein production entry is “failed”.
As for “SIDAICAYFYAGYDVPRVLNEGGWFFLENILLIKSVGGRKPPLTDNKLRIKFLQTTKMTHVPNREPSSLFRFAAFSMIENKTINSSTVHDAYGIVVRVGNITRPDFVPQASENTILSQFLEFEIKNSWGKSLICVASGYTCELFVQLWRELGLELGYHWNFGMNPTICVLRFWNVDDHEGRQCLISHNGASKITFNQSYPEINMDRVRTQFLQRMQTPELGEVVDEN”, the protein production entry is recorded as “not failed”.
The result for “SIQGKVALIAGGAKNLGGLIARDLAAHGARAIAIHYNSPASKADADATVAALQAAGAQAVALQGDLTTAAAVEKLYADALAAVGRPDIAINTVGKVLKKPFSEISEAEYDEMAAVNAKSAFFFLKEAGRHVNDHGKIVTLVTSLLGAFTPFYSAYAGTKAPVEHYTRAAAKEFGARGISVTAVGPGPMDTPFFYGQESPEAVAYHQSAAALSPHSPTGLTHIEDVVPFIRHLVSDGWWITGQTLLINGGY” reads “failed”; that for “SIQKDLANIAEVEVSIPAKLHNSLIGTKGRLIRSIMEECGGVHIHFPVEGSGSDTVVIRGPSSDVEKAKKQLLHLAEEKQTK”, “not failed”; that for “SISNRDTNGMPFAKETLEQQQAVEKKNEILEMSYEIAKLLETGLDRETLQVAIELLEQGFDPYALASVIKELKRGNNQTTE”, “failed”.
With “SKETIMNQKLTKRQAEVHTGRKGTAHRKKVVHTTAEDKKFQFSLKKLGVNNIPGIEEVNMFTHQGTVIHFNNPEVQASLAANTFTMTGHAETKQLTEMLLSIDHKPVLQMV” the entry was “not failed”.
With “SKNEKEQLSKAKASVSSLNKVIQTKLTVGNLGLGLVVIQNGPYLQISHLINKGAAASDGILQPGDVLISVGHANVLGYTLREFLKLLQNITIGTVLQIKAYRGFLEIPQEWQD” the entry was “not failed”.
On to “SLEEVVNELTEEIRELYTADQVPWVIGYSGGKDSTAVLQLVWMALKGLPAEQRTKAVHVISTDTLVENPVVAAWVSASLGTMQDAAQAQGLPVEPHRLTPEIKDTFWVNLLGRGYPAPRPKFRWCTERLKIKPSNAFIRSVVAAHGEAIMVLGIRKTESQARARAMEKHEKRRVRDRLSPNANLPNSLVYSPVEDWTNDDVWEFLMQKPNPWGYTNQDLLTMYQGASSDGECPLVVDSTTPSCGSSRFGCWT”, for which the protein production result is on record as “failed”.
Turning to “SLETVQLRNPPRRQLKKLDEDSLTKQPEEVFDVLEKLGEGSYGSVYKAIHKETGQIVAIKQVPVESDLQEIIKEISIMQQCDSPHVVKYYGSYFKNTDLWIVMEYCGAGSVSDIIRLRNKTLTEDEIATILQSTLKGLEYLHFMRKIHRDIKAGNILLNTEGHAKLADFGVAGQLTDTMAKRNTVIGTPFWMAPEVIQEIGYNCVADIWSLGITAIEMAEGKPPYADIHPMRAIFMIPTNPPPTFRKPELWSDNFTDFVKQCLVKSPEQRATATQLLQHPFVRSAKGVSILRDLINEAMDVKLKRQESQQREEG”, the protein production result was “not failed”.
Take “SLKGKIEWVRVSAVVHSTEDREKVGEAISTLFPFEFEIAVSKAKGHYGNPMEYLEVELTKSSEIKKFWKNLLELLGEQAEEILSTLEDRIDEQNVLHIRIDKQKAYLGEVSLTSGGDPIAVKLRLVTYPSKREKVIEFARELCTIS”: the protein production entry is recorded as “not failed”.
On to “SLNDLPGAGRMDVLCRCTSQALFISHGIRRDVEVYLLLLGPPSPPKSILIKGDEVRRMSPDERNVAGHIKKALAVECGKSWKKVHSGVYVSRKGLEELIEELSEKYSIIYLKEDGVDISNAQLPPNPLFVIGDHEGLTEEQEKVVERYAALKLSLSPLSLLAEQCVVIAHHHLDRLQF”, for which the protein production entry is “not failed”.
Turning to “SLQTSDVVIHRKENEGFGFVIISSLNRPESGSTITVPHKIGRIIDGSPADRCAKLKVGDRILAVNGQSIINMPHADIVKLIKDAGLSVTLRIIPQEELNSP”, the protein production result is recorded as “not failed”.
Take “SLRTKSWTDDLKVCNQTGVGEAINQIYKDDGRRCEGYESRDKKCLCISDNNTSLYAILSGHNGVTVAENALQEMAAELLLGQLNVCNTDEAVKELIRQSFMSVEKGYFDSINPHVATKTAIQLHLSADGMNQYEISQQFENVLQKLDSLNNALSVGSSAVLALIHRSHLYLGNIGNCRALLCKTDEHDTLTVTQLSVDHNLLNAEEAARLFRLGLMAQNFEGVPLYSTRCIGNYLGKAGYKDCNFLSSATAEPVIFEPEIVGGIQITPACRFLVLMSSGLCRALHEIFPGDASTGNRELVRMISEEFQNQSTLGGVAQSVVHRIVQAHHDTYMQLVEEHRSVTFNSRDDVTLLIRNFNYA”: the protein production result was “not failed”.
For “SLSRTVHHQQTAEITQQAADFIRYMNAINDYLYQHPERRAAGGQLTSAQLGLPATKNVSHLISQQRVFVWAKEKPGLMGALLEQSGDSALLARVENGRLLDTHGRRISITLPAVIPDQVIIWMN”, the protein production entry was “not failed”.
The result for “SLSSTQSVNSVLAPGNLRKVHHIALNVQDMQASRYFYGTILGLHELTDDEVPATLTELVASGKVANFITPDGTILDLFGEPELSPPDPNPEKTFTRAYHLAFDIDPQLFDRAVTVIGENKIAIAHGPVTRPTGRGVYFYDPDGFMIEIRCDPEAEG” reads “not failed”; that for “SLVDGKLVCVTGAGGYIASWIVKLLLERGYTVRGTVRNPTDPKNNHLRELQGAKERLTLHSADLLDYEALCATIDGCDGVFHTASPMTDDPETMLEPAVNGAKFVIDAAAKAKVKRVVFTSSIGAVYMNPNRDTQAIVDENCWSDLDFCKNTKNWYCYGKMLAEQSAWETAKAKGVDLVVLNPVLVLGPPLQSAINASLVHILKYLTGSAKTYANLTQVYVDVRDVALGHVLVYEAPSASGRYILAETALHRGEVVEILAKFFPEYPLPTKCSDEKNPRAKPYKFTTQKIKDLGLEFKPIKQSLYESVKSLQEKGHLPLPQDSNQNEVIIES”, “failed”.
With “SLWQPQTGDIIFQISRSSQSKAIQLATHSDYSHTGMLVMRNKKPYVFEAVGPVKYTPLKQWIAHGEKGKYVVRRVEGGLSVEQQQKLAQTAKRYLGKPYDFSFSWSDDRQYCSEVVWKVYQNALGMRVGEQQKLKEFDLSNPLVQAKLKERYGKNIPLEETVVSPQAVFDAPQLTTVAKEWPLFSW” the entry was “not failed”.
With “SNAMNVPFWTEEHVRATLPERDAESHKGTYGTALLLAGSDDMPGAALLAGLGAMRSGLGKLVIGTSENVIPLIVPVLPEATYWRDGWKKAADAQLEETYRAIAIGPGLPQTESVQQAVDHVLTADCPVILDAGALAKRTYPKREGPVILTPHPGEFFRMTGVPVNELQKKRAEYAKEWAAQLQTVIVLKGNQTVIAFPDGDCWLNPTGNGALAKGGTGDTLTGMILGMLCCHEDPKHAVLNAVYLHGACAELWTDEHSAHTLLAHELSDILPRVWKRFE”, the protein production result is given as “not failed”.
